# Results published in patent US11319369B2, “Motor control function improving agent” (Kao Corporation, priority 2016, dated 2022).
# Tests used:
# [1] = tested on: leptin receptor deficient C57BLKS/J male mice (db/db mice); experiment: Rotarod (motor control function) test after 28-day administration of GIP or GIP-binding anti-GIP antibody; assay type: in vivo, mouse; details: intraperitoneal daily for 28 days, GIP 5 nmol/kg, anti-GIP antibody 1 mg/kg, rotarod 6-28 rpm, compared to control group, FIG. 2
# Experimental: Six-week-old leptin receptor deficient C57BLKS/J male mice (db/db mice, Oriental Yeast Co., Ltd.) were transferred (room temperature: 23° C., humidity: 55±10%, light period: 7:00 to 19:00) and were fed with food and water ad libitum. The food was CE-2 (CLEA Japan, Inc.), and the mice were acclimated for 2 weeks under the above-mentioned environment and were then used for testing.
# Mouse-derived GIP (manufactured by AnaSpec, Inc.) was dissolved in physiological saline at a concentration of 500 nM to give a GIP solution. […]
# Physiological saline (control group), the GIP solution (5 nmol/kg body weight). […] After administration for 28 days, the motor control function was measured by a rotarod test.
# The motor control function (the accommodation ability reflecting balance ability and agility) was evaluated by measuring the capacity of staying on a rod rotating at various speeds using a rotarod (MK-600A, manufactured by Muromachi Kikai Co., Ltd.). Each mouse was placed on a stationary rod, and the number of times of falling was measured with a program of 6 rpm (1 min)→12 rpm (1 min)→16 rpm (1 min)→20 rpm (1 min)→24 rpm (1 min)→28 rpm (1 min). […]
# GIP(1-42) = target: T1, GIP(1-42) (Homo sapiens, UniProt P09681); experiment: Sandwich ELISA, reactivity with active GIP; assay type: binding; details: biotinylated antibody 1 μg/mL as detection antibody; GIP 8.2 to 2000 pg/mL; FIG. 1
# T1 sequence (P09681 52-93): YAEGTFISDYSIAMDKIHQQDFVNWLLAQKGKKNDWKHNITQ
# Experimental: (§1) The reactivity between the monoclonal antibody prepared in Production Example 1 and active GIP was confirmed by ELISA. The amino group of the anti-active GIP monoclonal antibody was biotinylated with NH2 group biotinylation kit (manufactured by Dojindo Laboratories). ELISA was performed using the produced biotinylated anti-active GIP monoclonal antibody at 1 μg/mL instead of a detection antibody, GIP detection antibody (biotinylated anti-total GIP monoclonal antibody), included in Human (total) GIP ELISA kit (manufactured by EMD Millipore Corporation). A […] dilution series of GIP(1-42) or GIP(3-42) was prepared in 6 steps (8.2 to 2000 pg/mL) with a 2000 pg/mL solution as the highest concentration. By using an anti-total GIP monoclonal antibody (included in Human GIP (total) ELISA kit manufactured by EMD Millipore Corporation) as a capture antibody, the biotinylated anti-active GIP monoclonal antibody as a detection antibody, and a peroxidase-streptavidin conjugate for detection, sandwich ELISA was conducted to prepare a calibration curve with GIP concentration on the X-axis and 450 nm-590 nm absorbance on the Y-axis (FIG. 1).
# GIP(3-42) = target: T2, GIP(3-42) (Homo sapiens, UniProt P09681); experiment: Sandwich ELISA, cross-reactivity with inactive GIP; assay type: binding; details: biotinylated antibody 1 μg/mL as detection antibody; GIP 8.2 to 2000 pg/mL; FIG. 1
# T2 sequence (P09681 54-93): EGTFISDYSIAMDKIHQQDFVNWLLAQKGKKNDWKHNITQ
# Experimental: as §1
# [2] = target: T3, PEGylated N-terminus 15 amino acids of active GIP (GIP(1-15)) (Homo sapiens, UniProt P09681); experiment: Hybridoma screening ELISA with immobilized antigen (1); assay type: binding; details: hybridoma culture supernatant
# T3 construct: PEGylated N-terminus 15 amino acids of active GIP (GIP(1-15)) was used as an antigen (1) for measurement; made in house; host or cells: synthetic peptide (no expression host)
# Experimental: (§2) Polyethylene glycol was added to N-terminus 15 amino acids of active GIP (GIP(1-15)) (PEGylation (polyethylene glycolation)), and keyhole limpet hemocyanin (KLH) was then chemically bonded thereto to produce KLH-linked PEGylated GIP (1-15) as an immunogen.
# (§3) The reaction between the hybridoma culture supernatant and the antigen (1) and (2) for measurement was evaluated by ELISA using immobilized antigen (1) and (2), and hybridomas that are positive for the antigen (1) and negative for the antigen (2) were selected as anti-active GIP monoclonal antibody-producing hybridomas.
# (§4) Antibody-producing hybridoma was cloned by culturing the hybridomas obtained above through a limiting dilution method to obtain single colonies, and single colony-forming wells were subjected to ELISA again to establish 9B9H5-B9 line, which produces an antibody that is positive for the antigen (1) and negative for the antigen (2) (WO 2016/104439).
# [3] = target: T4, PEGylated N-terminus 13 amino acids of inactive GIP (GIP(3-15)) (Homo sapiens, UniProt P09681); experiment: Hybridoma screening ELISA with immobilized antigen (2); assay type: binding; details: hybridoma culture supernatant
# T4 construct: made in house; host or cells: synthetic peptide (no expression host)
# Experimental: as §2, §3, §4
# [4] = tested on: aged C57BL/6J male mice (115-week-old); experiment: Rotarod (motor control function) test in aged mice given anti-GIP antibody; assay type: in vivo, mouse; details: C57BL/6J mice, 0.5 mg/kg intraperitoneal once a week, tested at 115-week-old, FIG. 4
# Experimental: Four-week-old C57BL/6J male mice (CLEA Japan, Inc.) were transferred (room temperature: 23° C., humidity: 55±10%, light period: 7:00 to 19:00) and were fed with food (D12450K, Research Diets, Inc.) and water ad libitum for 111 weeks.
# The anti-active GIP antibody produced in Production Example 1 was dissolved in physiological saline at a concentration of 0.05 mg/mL to give an anti-GIP antibody solution.
# Physiological saline (control group) or the anti-GIP antibody solution (0.5 mg/kg body weight) (anti-GIP antibody administration group) was intraperitoneally administered to C57BL/6J mice (107-week-old) once a week (9:00 to 10:00 a.m.), 8 times (8 weeks) in total.
# The motor control function (the accommodation ability reflecting balance ability and agility) was evaluated by measuring the capacity of staying on a rod rotating at various speeds using a rotarod (MK-600A, manufactured by Muromachi Kikai Co., Ltd.). The test was performed for 50-week-old mice (non-administration group) and 115-week-old mice (non-administration group, control group, and anti-GIP antibody administration group). Each mouse was placed on a stationary rod, and the number of times of falling was measured with a program of 6 rpm (1 min)→12 rpm (1 min)→16 rpm (1 min)→20 rpm (1 min)→24 rpm (1 min)→28 rpm (1 min).
# The analysis results were shown as the average value (Ave.)±standard error (SE). […]
Molecule,decrease in the motor control function (increase in the number of times of falling with an increase of the rotation speed) [1],reactivity with GIP(1-42) (450 nm-590 nm absorbance) (GIP(1-42)),cross-reactivity with GIP(3-42) (450 nm-590 nm absorbance) (GIP(3-42)),ELISA reaction with antigen (1) [2],ELISA reaction with antigen (2) [3],"motor control function (number of times of falling) compared to non-administration and control 115-week-old groups ([4]; 8 times from 107-week-old, rotarod 6-28 rpm)",motor control function relative to the non-administration (50-week-old) group ([4]; 8 times)
"GIP: Mouse-derived GIP (manufactured by AnaSpec, Inc.), gastric inhibitory polypeptide, dissolved in physiological saline at 500 nM (YAEGTFISDYSIAMDKIRQQDFVNWLLAQRGKKSDWKHNITQ)",significant decrease,–,–,–,–,–,–
"monoclonal antibody prepared in Production Example 1: Mouse monoclonal anti-active GIP antibody produced by hybridoma 9B9H5-B9 line; H-chain variable region SEQ ID NO: 2, L-chain variable region SEQ … (antibody, listed as Mus musculus, V domains shown) VH: QVQLQQPGAELVKPGASVKLSCKASGYTFTSFWMHWVIQRPGQGLEWIGEMNPSDGRTHFNEKFKTKATLTIDTSSNTAYMELNSLTSEDSAVYYCARRMEDWGQGTLVTVSA VL: DIKMTQSPSSMYASLGERVTITCKASQDINSYLGWFQQKPGKSPKTLIYGANRLVDGVPSRFSGSGSGQDYSLTISSLEYDDMGIYYCLQYDEFPLTFGAGTKLELKR",–,capable of specifically detecting GIP(1-42),does not show cross-reactivity,positive,negative,improvement in the motor control function was observed,equivalent to that of the non-administration (50-week-old) group
